Data on three molecules can be found in article PMC10955041, “Reverse-engineering the anti-MUC1 antibody 139H2 by mass spectrometry–based de novo sequencing” (Life Science Alliance, 2024).

B1: hybridoma-derived 139H2 IgG (antibody, V domains shown)
VH: QVQLQQSGAELVKPGASVKLSCKASGYTFTNYYMYWVLQRPGQGLEWIGEINPSNGGTTFNEKFKNKATLTVDKSSSTAYMQLNSLTSEDSAVYYCTRSRYGNYVNYGMDYWGQGTSVTVSS
VL: DIVMSQSPSSLAVSVGEKVTMSCKSSQSLLYSNTQKNYLAWYQQKPGQSPKLLIYWASTRESGVPDRFTGSGSGTDFTLTISSVKAENLAVYYCQQYYRYPPTFGGGTKLELK
notes: as the heavy-chain variable domain of m1 (IGHV1-53); as the light-chain variable domain of m1 (IGKV8-30); mouse kappa light-chain constant region; Mouse IgG1, kappa; also called original hybridoma-derived 139H2; 139H2 WT; source: hybridoma culture supernatant (gift, NKI), purified (Protein G Sepharose); copies: 2 + 2
B2: recombinant 139H2 Fab fragment (Fab, V domains shown)
VH: B1 VH
VL: B1 VL
notes: as the heavy-chain variable domain of m1 (IGHV1-53); mouse Ig gamma-1 (IGHG1) Fab constant region; as the light-chain variable domain of m1 (IGKV8-30); mouse kappa light-chain constant region, as in m1; also called monovalent Fab fragment; anti-MUC1 Fab; source: HEK293 cells (ImmunoPrecise Antibodies), culture supernatant, purified (HisTrap Excel, Superdex 200 SEC)
B3: recombinant (reverse-engineered) 139H2 IgG (antibody, V domains shown)
VH: B1 VH
VL: B1 VL
notes: also in PDB 8P6I; standard mouse Ig gamma-1 (IGHG1) constant region, linker and Fc region, UniProt P01868.1; mouse kappa light-chain constant region (kappa light-chain backbone); Mouse IgG1, kappa; also called synthetic recombinant 139H2; recombinant 139H2; source: HEK293 cells (ImmunoPrecise Antibodies), culture supernatant, purified (HisTrap Excel); copies: 2 + 2

The target of this assay is T1, full-length MUC1 glycoprotein of HT29-MTX cells (Homo sapiens, HT29-MTX cells, UniProt P15941, VNTR heavily O-linked glycosylated).
T1 construct: Mucin 1 (MUC1), endogenous in the human colon cancer cell line HT29-MTX; band at an estimated 600 kD; written here as one chain; also called Mucin 1; source: endogenous, HT29-MTX lysate (Western blot) and fixed, permeabilized HT29-MTX monolayers (immunofluorescence)
T1 sequence (P15941 24-1255): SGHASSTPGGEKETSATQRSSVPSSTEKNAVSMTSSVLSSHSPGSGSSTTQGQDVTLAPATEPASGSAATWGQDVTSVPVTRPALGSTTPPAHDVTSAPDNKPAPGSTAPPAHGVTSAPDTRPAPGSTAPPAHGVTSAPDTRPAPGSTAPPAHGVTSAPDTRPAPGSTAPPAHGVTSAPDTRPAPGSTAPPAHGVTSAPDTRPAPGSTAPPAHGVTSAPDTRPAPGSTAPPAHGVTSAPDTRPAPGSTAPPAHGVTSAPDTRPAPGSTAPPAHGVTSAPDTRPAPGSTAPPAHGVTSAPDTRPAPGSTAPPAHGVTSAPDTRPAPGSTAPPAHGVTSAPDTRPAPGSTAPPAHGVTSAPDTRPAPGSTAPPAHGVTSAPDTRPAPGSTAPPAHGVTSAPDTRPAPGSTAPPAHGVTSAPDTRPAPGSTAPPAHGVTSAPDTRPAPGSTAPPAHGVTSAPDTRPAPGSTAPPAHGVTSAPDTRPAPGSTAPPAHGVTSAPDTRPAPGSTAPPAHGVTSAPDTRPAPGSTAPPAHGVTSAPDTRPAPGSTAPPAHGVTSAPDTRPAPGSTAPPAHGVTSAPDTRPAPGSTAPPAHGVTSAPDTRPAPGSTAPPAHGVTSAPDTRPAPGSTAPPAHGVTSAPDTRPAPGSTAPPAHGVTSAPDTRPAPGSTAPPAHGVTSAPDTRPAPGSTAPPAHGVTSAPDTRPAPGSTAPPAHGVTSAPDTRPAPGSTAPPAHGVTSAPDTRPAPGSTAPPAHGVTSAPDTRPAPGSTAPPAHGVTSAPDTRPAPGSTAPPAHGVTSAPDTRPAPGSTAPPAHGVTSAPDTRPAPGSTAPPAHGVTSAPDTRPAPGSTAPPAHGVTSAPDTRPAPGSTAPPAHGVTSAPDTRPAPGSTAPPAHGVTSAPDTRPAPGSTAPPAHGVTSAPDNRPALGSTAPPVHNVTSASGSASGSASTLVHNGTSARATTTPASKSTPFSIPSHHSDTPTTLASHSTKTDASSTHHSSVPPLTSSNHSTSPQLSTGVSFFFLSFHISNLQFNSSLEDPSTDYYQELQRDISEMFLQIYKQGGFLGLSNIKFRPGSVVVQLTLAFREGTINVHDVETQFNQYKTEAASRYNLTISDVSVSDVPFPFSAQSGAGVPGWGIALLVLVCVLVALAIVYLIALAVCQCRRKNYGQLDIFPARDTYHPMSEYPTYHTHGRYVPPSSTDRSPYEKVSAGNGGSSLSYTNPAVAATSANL
The assay can be described thus: far-Western, overlay or dot blot; immunoblot of SDS lysates of HT29-MTX and HT29-MTX ΔMUC1 cells on a mucin-SDS gel, PVDF; 139H2 antibodies 1:1,000 in TSMT with 1% BSA, 1 h at RT; detected with anti-mouse IgG. The following applies: one partner purified.
As to B1, the binding result was “binds”. The entry for B2 is “binds”. In the case of B3, the binding result is recorded as “binds”.
